The numbers were not newly measured in publication PMC7876049, which cites them from elsewhere.

Usually Kd stands for a measure of binding affinity in units of concentration.

This data set deals with CYK4 (Homo sapiens) (UniProt Q9H0H5).
Chain of UniProt Q9H0H5 (Q9H0H5 whole entry): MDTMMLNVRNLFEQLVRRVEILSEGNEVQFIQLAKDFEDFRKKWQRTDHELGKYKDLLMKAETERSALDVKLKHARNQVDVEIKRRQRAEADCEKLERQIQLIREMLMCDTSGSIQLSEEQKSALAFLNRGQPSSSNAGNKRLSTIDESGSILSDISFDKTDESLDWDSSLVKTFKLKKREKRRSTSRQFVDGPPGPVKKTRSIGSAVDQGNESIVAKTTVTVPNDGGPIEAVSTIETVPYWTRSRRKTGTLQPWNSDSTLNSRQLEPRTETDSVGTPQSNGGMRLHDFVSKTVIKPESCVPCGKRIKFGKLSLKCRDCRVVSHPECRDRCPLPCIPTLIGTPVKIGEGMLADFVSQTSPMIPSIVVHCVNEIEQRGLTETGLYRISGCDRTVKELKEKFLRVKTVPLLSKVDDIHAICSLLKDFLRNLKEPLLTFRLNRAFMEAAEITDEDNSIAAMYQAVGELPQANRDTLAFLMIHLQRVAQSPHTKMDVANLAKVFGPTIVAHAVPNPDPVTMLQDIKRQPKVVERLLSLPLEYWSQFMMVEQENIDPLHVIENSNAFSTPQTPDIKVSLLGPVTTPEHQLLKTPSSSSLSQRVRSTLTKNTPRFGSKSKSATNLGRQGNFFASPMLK

With MKLP1 (from UniProt Q02241), the Kd is 7 nM.
